Legend:
[1] = biological target: monkey DLL3 on CHO-K1-cyno DLL3 cells (cynomolgus monkey); assay: FACS, CHO-K1-cyno DLL3 cells, 0.0064 nM antibody
[2] = biological target: monkey DLL3 on CHO-K1-cyno DLL3 cells (cynomolgus monkey); assay: FACS, CHO-K1-cyno DLL3 cells, 4 nM antibody
[3] = biological target: monkey DLL3 on CHO-K1-cyno DLL3 cells (cynomolgus monkey); assay: FACS, CHO-K1-cyno DLL3 cells, 0.16 nM antibody
[4] = biological target: human DLL3 protein expressed on CHO-K1 recombinant cells (human DLL3 extracellular segment fused to EpCAM transmembrane and intracellular regions) (human) (UniProt Q9NYJ7); assay: FACS, CHO-K1 hDLL3 cells, 20 nM antibody
[5] = biological target: human DLL3 protein expressed on CHO-K1 recombinant cells (human DLL3 extracellular segment fused to EpCAM transmembrane and intracellular regions) (human) (UniProt Q9NYJ7); assay: FACS, CHO-K1 hDLL3 cells, 4 nM antibody
[6] = biological target: human DLL1 protein (Acro, Cat. No. DL1-H52H8) (human) (UniProt O00548); assay: ELISA, coated hDLL1; maximum over 0.1, 1, 10, 100 nM antibody
[7] = biological target: monkey DLL3 on CHO-K1-cyno DLL3 cells (cynomolgus monkey); assay: FACS, CHO-K1-cyno DLL3 cells, 100 nM antibody
[8] = biological target: mouse DLL3 on CHO-K1-mDLL3 cells (mouse) (UniProt O88516); assay: FACS, CHO-K1-mDLL3 cells, 0.0064 nM antibody
[9] = biological target: DLL3 endogenously expressed on NCI-H82 cells (UniProt Q9NYJ7); assay: FACS on NCI-H82 cells; antibody 4 nM
[10] = biological target: DLL3 endogenously expressed on NCI-H82 cells (UniProt Q9NYJ7); assay: FACS on NCI-H82 cells; antibody 0.0064 nM
[11] = biological target: mouse DLL3 on CHO-K1-mDLL3 cells (mouse) (UniProt O88516); assay: FACS, CHO-K1-mDLL3 cells, 4 nM antibody
[12] = biological target: human DLL3 protein expressed on CHO-K1 recombinant cells (human DLL3 extracellular segment fused to EpCAM transmembrane and intracellular regions) (human) (UniProt Q9NYJ7); assay: FACS, CHO-K1 hDLL3 cells, 0.032 nM antibody
[13] = biological target: mouse DLL3 on CHO-K1-mDLL3 cells (mouse) (UniProt O88516); assay: FACS, CHO-K1-mDLL3 cells, 0.8 nM antibody
[14] = biological target: DLL3 endogenously expressed on NCI-H82 cells (UniProt Q9NYJ7); assay: FACS on NCI-H82 cells; antibody 100 nM
[15] = biological target: DLL3 endogenously expressed on NCI-H82 cells (UniProt Q9NYJ7); assay: FACS on NCI-H82 cells; antibody 0.00128 nM
[16] = biological target: human DLL3 protein expressed on CHO-K1 recombinant cells (human DLL3 extracellular segment fused to EpCAM transmembrane and intracellular regions) (human) (UniProt Q9NYJ7); assay: FACS, CHO-K1 hDLL3 cells, 0.8 nM antibody
[17] = biological target: mouse DLL3 on CHO-K1-mDLL3 cells (mouse) (UniProt O88516); assay: FACS, CHO-K1-mDLL3 cells, 100 nM antibody
[18] = biological target: DLL3 endogenously expressed on NCI-H82 cells (UniProt Q9NYJ7); assay: FACS on NCI-H82 cells; antibody 0.8 nM
[19] = biological target: monkey DLL3 on CHO-K1-cyno DLL3 cells (cynomolgus monkey); assay: FACS, CHO-K1-cyno DLL3 cells, 0.8 nM antibody
[20] = biological target: mouse DLL3 on CHO-K1-mDLL3 cells (mouse) (UniProt O88516); assay: FACS, CHO-K1-mDLL3 cells, 0.032 nM antibody
[21] = biological target: mouse DLL3 on CHO-K1-mDLL3 cells (mouse) (UniProt O88516); assay: FACS, CHO-K1-mDLL3 cells, 0.00128 nM antibody
[22] = biological target: monkey DLL3 on CHO-K1-cyno DLL3 cells (cynomolgus monkey); assay: FACS, CHO-K1-cyno DLL3 cells, 0.032 nM antibody
[23] = biological target: monkey DLL3 on CHO-K1-cyno DLL3 cells (cynomolgus monkey); assay: FACS, CHO-K1-cyno DLL3 cells, 20 nM antibody
[24] = biological target: human DLL3 protein expressed on CHO-K1 recombinant cells (human DLL3 extracellular segment fused to EpCAM transmembrane and intracellular regions) (human) (UniProt Q9NYJ7); assay: FACS, CHO-K1 hDLL3 cells, 0.00128 nM antibody
[25] = biological target: DLL3 endogenously expressed on NCI-H82 cells (UniProt Q9NYJ7); assay: FACS on NCI-H82 cells; antibody 0.16 nM
[26] = biological target: human DLL3 protein expressed on CHO-K1 recombinant cells (human DLL3 extracellular segment fused to EpCAM transmembrane and intracellular regions) (human) (UniProt Q9NYJ7); assay: FACS, CHO-K1 hDLL3 cells, 0.16 nM antibody
[27] = biological target: mouse DLL3 on CHO-K1-mDLL3 cells (mouse) (UniProt O88516); assay: FACS, CHO-K1-mDLL3 cells, 20 nM antibody
[28] = biological target: DLL3 endogenously expressed on NCI-H82 cells (UniProt Q9NYJ7); assay: FACS on NCI-H82 cells; antibody 20 nM
[29] = biological target: mouse DLL3 on CHO-K1-mDLL3 cells (mouse) (UniProt O88516); assay: FACS, CHO-K1-mDLL3 cells, 0.16 nM antibody
[30] = biological target: DLL3 endogenously expressed on NCI-H82 cells (UniProt Q9NYJ7); assay: FACS on NCI-H82 cells; antibody 0.032 nM
[31] = biological target: human delta-like ligand 3 (DLL3) on SHP77 cells (human) (UniProt Q9NYJ7); assay: FACS on SHP77 cells
[32] = biological target: human DLL4 protein (Acro, Cat. No. DL4-H5227) (human) (UniProt Q9NR61); assay: ELISA, coated hDLL4; maximum over 0.1, 1, 10, 100 nM antibody
[33] = biological target: human DLL3 protein expressed on CHO-K1 recombinant cells (human DLL3 extracellular segment fused to EpCAM transmembrane and intracellular regions) (human) (UniProt Q9NYJ7); assay: FACS, CHO-K1 hDLL3 cells, 100 nM antibody
[34] = biological target: monkey DLL3 on CHO-K1-cyno DLL3 cells (cynomolgus monkey); assay: FACS, CHO-K1-cyno DLL3 cells, 0.00128 nM antibody
[35] = biological target: human DLL3 protein expressed on CHO-K1 recombinant cells (human DLL3 extracellular segment fused to EpCAM transmembrane and intracellular regions) (human) (UniProt Q9NYJ7); assay: FACS, CHO-K1 hDLL3 cells, 0.0064 nM antibody

Chain of human delta-like ligand 3 (DLL3) on SHP77 cells (human) (Q9NYJ7 27-618, stated change not applied): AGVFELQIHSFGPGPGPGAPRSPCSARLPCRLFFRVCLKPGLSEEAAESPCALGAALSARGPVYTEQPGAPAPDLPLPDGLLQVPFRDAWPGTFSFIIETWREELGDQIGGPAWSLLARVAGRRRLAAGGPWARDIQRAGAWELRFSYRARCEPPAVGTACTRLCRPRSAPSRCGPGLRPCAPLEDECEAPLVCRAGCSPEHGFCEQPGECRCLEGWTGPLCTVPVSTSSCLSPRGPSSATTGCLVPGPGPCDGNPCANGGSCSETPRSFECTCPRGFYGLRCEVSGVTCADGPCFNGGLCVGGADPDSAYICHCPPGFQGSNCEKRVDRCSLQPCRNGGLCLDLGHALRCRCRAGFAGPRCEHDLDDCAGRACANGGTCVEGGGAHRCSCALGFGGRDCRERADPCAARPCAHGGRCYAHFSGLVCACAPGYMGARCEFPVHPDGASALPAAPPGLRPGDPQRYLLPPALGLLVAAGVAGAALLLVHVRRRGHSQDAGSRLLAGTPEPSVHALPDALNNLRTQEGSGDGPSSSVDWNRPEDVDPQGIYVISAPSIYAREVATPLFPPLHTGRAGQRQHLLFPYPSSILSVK
Chain of DLL3 endogenously expressed on NCI-H82 cells (Q9NYJ7 27-618): as the sequence (Q9NYJ7 27-618, stated change not applied) above
Chain of mouse DLL3 on CHO-K1-mDLL3 cells (mouse) (O88516 other isoform, or with tags, fused parts or gaps limits assumed): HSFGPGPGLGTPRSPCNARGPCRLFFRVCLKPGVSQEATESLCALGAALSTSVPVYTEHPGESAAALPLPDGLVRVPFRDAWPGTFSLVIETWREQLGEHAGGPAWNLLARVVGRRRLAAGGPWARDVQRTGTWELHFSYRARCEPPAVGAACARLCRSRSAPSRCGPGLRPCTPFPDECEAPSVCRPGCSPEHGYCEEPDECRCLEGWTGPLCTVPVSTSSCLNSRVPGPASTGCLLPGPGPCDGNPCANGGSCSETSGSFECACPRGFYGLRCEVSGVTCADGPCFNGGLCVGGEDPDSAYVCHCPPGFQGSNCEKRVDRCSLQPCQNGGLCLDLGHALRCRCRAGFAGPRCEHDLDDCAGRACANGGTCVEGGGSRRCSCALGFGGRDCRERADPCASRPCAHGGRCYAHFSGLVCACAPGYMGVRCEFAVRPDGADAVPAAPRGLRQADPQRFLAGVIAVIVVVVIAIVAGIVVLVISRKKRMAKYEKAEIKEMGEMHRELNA
Chain of human DLL3 protein expressed on CHO-K1 recombinant cells (human DLL3 extracellular segment fused to EpCAM transmembrane and intracellular regions) (human) (Q9NYJ7 other isoform, or with tags, fused parts or gaps limits assumed): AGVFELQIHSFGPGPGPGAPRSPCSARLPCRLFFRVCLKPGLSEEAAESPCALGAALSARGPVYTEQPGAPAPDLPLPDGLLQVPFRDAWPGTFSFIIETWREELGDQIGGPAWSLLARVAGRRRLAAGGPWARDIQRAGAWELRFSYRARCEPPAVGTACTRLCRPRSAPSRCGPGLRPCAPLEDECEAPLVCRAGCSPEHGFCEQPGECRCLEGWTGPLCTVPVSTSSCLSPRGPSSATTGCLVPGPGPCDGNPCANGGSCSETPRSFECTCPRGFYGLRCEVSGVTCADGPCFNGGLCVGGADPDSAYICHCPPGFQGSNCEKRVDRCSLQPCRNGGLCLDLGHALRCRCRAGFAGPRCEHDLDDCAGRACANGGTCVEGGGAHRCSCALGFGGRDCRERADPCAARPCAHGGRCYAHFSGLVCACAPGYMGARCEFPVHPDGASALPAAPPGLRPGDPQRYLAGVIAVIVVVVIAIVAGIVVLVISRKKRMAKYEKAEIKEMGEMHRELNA
Chain of monkey DLL3 on CHO-K1-cyno DLL3 cells (cynomolgus monkey) (chain, as listed by the source limits assumed): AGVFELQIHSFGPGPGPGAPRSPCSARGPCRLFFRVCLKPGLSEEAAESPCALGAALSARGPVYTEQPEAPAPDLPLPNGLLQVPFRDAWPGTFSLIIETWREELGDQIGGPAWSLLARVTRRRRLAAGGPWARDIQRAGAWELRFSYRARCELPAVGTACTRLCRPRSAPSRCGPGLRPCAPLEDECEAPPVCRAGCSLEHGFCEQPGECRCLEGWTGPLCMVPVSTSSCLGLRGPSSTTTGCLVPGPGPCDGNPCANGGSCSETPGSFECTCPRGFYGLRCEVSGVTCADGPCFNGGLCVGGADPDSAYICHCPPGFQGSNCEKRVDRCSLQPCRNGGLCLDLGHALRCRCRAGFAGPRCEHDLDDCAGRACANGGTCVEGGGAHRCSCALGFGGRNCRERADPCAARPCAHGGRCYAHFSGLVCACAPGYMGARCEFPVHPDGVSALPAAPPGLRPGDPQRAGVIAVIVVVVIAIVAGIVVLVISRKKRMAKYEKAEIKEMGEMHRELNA
Chain of human DLL4 protein (Acro, Cat. No. DL4-H5227) (human) (Q9NR61 27-524 limits assumed): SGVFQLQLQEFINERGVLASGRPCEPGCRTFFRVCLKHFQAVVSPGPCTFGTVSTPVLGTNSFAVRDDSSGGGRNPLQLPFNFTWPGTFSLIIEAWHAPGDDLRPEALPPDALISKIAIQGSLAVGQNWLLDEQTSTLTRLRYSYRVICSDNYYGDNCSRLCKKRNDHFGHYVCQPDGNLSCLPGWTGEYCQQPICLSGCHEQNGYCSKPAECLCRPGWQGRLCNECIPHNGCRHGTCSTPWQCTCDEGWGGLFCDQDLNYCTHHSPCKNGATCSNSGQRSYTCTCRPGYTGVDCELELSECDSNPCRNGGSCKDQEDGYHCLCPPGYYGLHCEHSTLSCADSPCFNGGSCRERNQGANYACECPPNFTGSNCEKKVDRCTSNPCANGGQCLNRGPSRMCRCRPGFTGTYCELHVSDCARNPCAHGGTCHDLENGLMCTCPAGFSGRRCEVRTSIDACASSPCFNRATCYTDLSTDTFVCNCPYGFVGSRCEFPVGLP
Chain of human DLL1 protein (Acro, Cat. No. DL1-H52H8) (human) (O00548 18-540 limits assumed): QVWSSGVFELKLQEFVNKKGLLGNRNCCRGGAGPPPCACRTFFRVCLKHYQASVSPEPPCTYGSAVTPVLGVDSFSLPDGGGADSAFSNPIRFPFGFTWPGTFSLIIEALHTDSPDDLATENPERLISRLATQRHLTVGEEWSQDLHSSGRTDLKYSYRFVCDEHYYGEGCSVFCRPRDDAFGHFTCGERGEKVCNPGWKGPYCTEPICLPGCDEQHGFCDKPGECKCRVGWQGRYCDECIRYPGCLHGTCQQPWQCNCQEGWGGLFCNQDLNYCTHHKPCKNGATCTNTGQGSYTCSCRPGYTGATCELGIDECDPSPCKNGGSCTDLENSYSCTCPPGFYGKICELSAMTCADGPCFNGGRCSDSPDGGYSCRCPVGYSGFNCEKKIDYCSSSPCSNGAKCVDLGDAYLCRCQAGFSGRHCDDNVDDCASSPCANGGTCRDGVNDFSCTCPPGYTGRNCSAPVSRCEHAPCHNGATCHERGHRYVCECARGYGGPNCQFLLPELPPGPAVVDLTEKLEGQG

B1: Hab015VL4VH5a-hFc (scFv, part only; not given: VL-VH linker and human IgG1 Fc, V domains shown, not shown: another chain or arm of the molecule; a dimerising Fc or GST; small tags and cut ends)
VL: NIVLTQSPATLSLSPGERATLSCKASENVGTYVSWFQQKPGQSPRLLIYGASNRYTGIPARFSGSGSGTDFTLTISSLEPEDFAVYYCGQFYSFPSTFGGGTKVEIK
VH: EVQLVESGGGLVKPGGSLRLSCVASGITFSNFWMNWVRQAPGKGLEWVGQIRLKSDDYATHYAESVKGRFTISREDSKNTVYLQMNSLKTEDTAVYYCTTGYYFDYWGQGTTVTVSS
Q: Which results are given for B1?
A: MFI [1]: 164 MFI; MFI [2]: 6520 MFI; MFI [3]: 1180 MFI; MFI [4]: 12000 MFI; MFI [5]: 10900 MFI; Emax of OD450 nm binding value [6]: 0.42 OD450 nm; MFI [7]: 7610 MFI; MFI [8]: 126 MFI; MFI [9]: 1030; MFI [10]: 135; MFI [11]: 1210 MFI; MFI [12]: 283 MFI; MFI [13]: 875 MFI; MFI [14]: 1510; MFI [15]: 118; MFI [16]: 4390 MFI; MFI [17]: 1530 MFI; MFI [18]: 942; MFI [19]: 4480 MFI; MFI [20]: 170 MFI; MFI [21]: 117 MFI; MFI [22]: 377 MFI; MFI [23]: 7180 MFI; MFI [24]: 122 MFI; MFI [25]: 476; MFI [26]: 870 MFI; MFI [27]: 1420 MFI; MFI [28]: 1190; MFI [29]: 350 MFI; MFI [30]: 212; MFI at 0.00128 nM [31]: 100 MFI; MFI at 0.0064 nM [31]: 117 MFI; MFI at 0.032 nM [31]: 179 MFI; MFI at 0.16 nM [31]: 368 MFI; MFI at 0.8 nM [31]: 709 MFI; MFI at 4 nM [31]: 812 MFI; MFI at 20 nM [31]: 997 MFI; MFI at 100 nM [31]: 1250 MFI; Emax of OD450 nm binding value [32]: 0.71 OD450 nm; MFI [33]: 12400 MFI; MFI [34]: 122 MFI; MFI [35]: 150 MFI

B2: Hab015VL5VH1a-hFc (scFv, part only; not given: scFv linker and human IgG1 Fc, V domains shown, not shown: another chain or arm of the molecule; a dimerising Fc or GST; small tags and cut ends)
VL: NIQMTQSPSSLSASVGDRVTITCKASENVGTYVSWYQQKPGKSPKLLIYGASNRYTGVPSRFSGSGSGTDFTLTISSLQPEDFATYYCGQFYSFPSTFGGGTKVEIK
VH: EVQLVESGGGLVKPGGSLRLSCAASGITFSNFWMNWVRQAPGKGLEWVGQIRLKSDDYATHYAESVKGRFTISREDSKNTVYLQMNSLKTEDTAVYYCTTGYYFDYWGQGTTVTVSS
Q: B2 was tested. Which MFI [1] did it give?
A: 178 MFI

Q: And the MFI [2]?
A: 6660 MFI

Q: What about the MFI [3] of the same binder?
A: 1190 MFI

Q: What about the MFI [4] of the same binder?
A: 11800 MFI

Q: And the MFI [5]?
A: 10600 MFI

Q: And the Emax of OD450 nm binding value [6]?
A: 0.47 OD450 nm

Q: And the MFI [7]?
A: 7380 MFI

Q: What about the MFI [8] of the same binder?
A: 131 MFI

Q: And the MFI [9]?
A: 867

Q: And the MFI [10]?
A: 137

Q: What about the MFI [11] of the same binder?
A: 1200 MFI

Q: And the MFI [12]?
A: 330 MFI

Q: What about the MFI [13] of the same binder?
A: 922 MFI

Q: And the MFI [14]?
A: 1220

Q: What about the MFI [15] of the same binder?
A: 118

Q: What about the MFI [16] of the same binder?
A: 4310 MFI

Q: What about the MFI [17] of the same binder?
A: 1550 MFI

Q: And the MFI [18]?
A: 811

Q: What about the MFI [19] of the same binder?
A: 4340 MFI

Q: And the MFI [20]?
A: 195 MFI

Q: And the MFI [21]?
A: 121 MFI

Q: And the MFI [22]?
A: 415 MFI

Q: And the MFI [23]?
A: 7040 MFI

Q: And the MFI [24]?
A: 129 MFI

Q: And the MFI [25]?
A: 478

Q: What about the MFI [26] of the same binder?
A: 936 MFI

Q: What about the MFI [27] of the same binder?
A: 1290 MFI

Q: What about the MFI [28] of the same binder?
A: 1100

Q: What about the MFI [29] of the same binder?
A: 393 MFI

Q: And the MFI [30]?
A: 219

Q: What about the MFI at 0.00128 nM [31] of the same binder?
A: 102 MFI

Q: And the MFI at 0.0064 nM [31]?
A: 122 MFI

Q: What about the MFI at 0.032 nM [31] of the same binder?
A: 185 MFI

Q: What about the MFI at 0.16 nM [31] of the same binder?
A: 343 MFI

Q: And the MFI at 0.8 nM [31]?
A: 612 MFI

Q: And the MFI at 4 nM [31]?
A: 768 MFI

Q: What about the MFI at 20 nM [31] of the same binder?
A: 907 MFI

Q: And the MFI at 100 nM [31]?
A: 1140 MFI

Q: What about the Emax of OD450 nm binding value [32] of the same binder?
A: 0.71 OD450 nm

Q: What about the MFI [33] of the same binder?
A: 12000 MFI

Q: What about the MFI [34] of the same binder?
A: 131 MFI

Q: And the MFI [35]?
A: 160 MFI

— EP4786492A1
